This data set can be described thus: soluble on expression in E. coli; label from the status in PepcDB or PDB records.
“MAQREWVEKDFYQELGVSSDASPEEIKRAYRKLARDLHPDANPGNPAAGERFKAVSEAHNVLSDPAKRKEYDETRRLFAGGGFGGRRFDSGFGGGFGGFGVGGDGAEFNLNDLFDAASRTGGTTIGDLFGGLFGRGGSARPSRPRRGNDLETETELDFVEAAKGVAMPLRLTSPAPCTNCHGSGARPGTSPKVCPTCNGSGVINRNQGAFGFSEPCTDCRGSGSIIEHPCEECKGTGVTTRTRTINVRIPPGVEDGQRIRLAGQGEAGLRGAPSGDLYVTVHVRPDKIFGRDGDDLTVTVPVSFTELALGSTLSVPTLDGTVGVRVPKGTADGRILRVRGRGVPKRSGGSGDLLVTVKVAVPPNLAGAAQEALEAYAAAERSSGFNPRAGWAGNR”: the “soluble on expression in E. coli” value is given as “soluble”.
The entry for “MGSDKIHHHHHHMKVFTEKIPNIPWEERPEGYTGPVWRYSKNPIIGRNPVPKGARVFNSAVVPYNGEFVGVFRIDHKNTRPFLHFGRSKDGINWEIEPEEIQWVDVNGEPFQPSYAYDPRVVKIEDTYYITFCTDDHGPTIGVGMTKDFKTFVRLPNAYVPFNRNGVLFPRKINGKYVMLNRPSDNGHTPFGDIFLSESPDMIHWGNHRFVLGRSSYNWWENLKIGAGPYPIETSEGWLLIYHGVTLTCNGYVYSFGAALLDLDDPSKVLYRSRYYLLTPEEEYETVGFVPNVVFPCAALCDADTGRVAIYYGAADTHVALAFGYIDEIVDFVKRNSM” is “soluble”; for “MWKIMRSWKCGGMRWAHRQRPSHELLSQLSFDQHYKIRSNIELLIQDYASKPIAPLNYEYFLQYRPPLTKKEEYMLTIKTINLLLSLTCKRLNAIQRLPYNAVINPHIERTNSLYLKSLQTLLSIAYPYELHNPPKIQAKFTELLDDHEDAIVVLAKGLQEIQSCYPKFQISQFLNFHLKERITMKLLVTHYLSLMAQNKGDTNKRMIGILHRDLPIAQLIKHVSDYVNDICFVKFNTQRTPVLIHPPSQDITFTCIPPILEYIMTEVFKNAFEAQIALGKEHMPIEINLLKPDDDELYLRIRDHGGGITPEVEALMFNYSYSTHTQQSADSESTDLPGEQINNVSGMGFGLPMCKTYLELFGGKIDVQSLLGWGTDVYIKLKGPSKTALLSKK” it is “soluble”; for “MSGIPSQGVASGMREAARALLAVLEPEQVRELRAGPDRLDTPELREWTYLPGPRPGLSTEGLDGRQREVVDALLTTAHSAAGAELVRGAIEVERHPRARAGHPGPDRYWVRLLGDPGGDEPWGWRLNGHHLAVHVLVTAAGVRVTPHFVGAEPARTGNGPRPGLRPLGPEEDLARELITSLGGTARASALFAATPPDDILTRADPFADPGLLPEGLRYDRLAPGQQRLLERLVGRYLDRAPEAYARECWSDAVRRGLGSLSFAWAGGLAPGDRHYYCVRAPDFLIEYDNTQDDGNHAHSVWRHVRHDWGTDLLRGHYTEQHFLEHHHHHH” it is “not soluble”.
The entry for “MSLSDVKVIIMDIDGTLTTSKKIISEKTKKALKKAQELGAVLILASGRPTSGLMDFAKELEMDKNHGLLVSFNGARVVDCETNKILFNETMSIDQGQAVLEHMKKFEVKPMIDKGDYMYVNDVFDNEIQYKGEPFNIIQYESRNNKFKLCEKHDLAAFADYPLNKILTAGEPEYLKKHYKEMMEPFKESLNCMFTADFYFEFTAEGIDKAKALDTVLIPMGYKKEEMIAFGDGHNDISMVKYAGIGVAMDNAVQELKNAADEVTLSNEEDGIAYTLSKYMKGLEGHHHHHH” is “soluble”; for “MGSDKIHHHHHHYKKKFSGEILCAALWGVNLLIGTDSGLMLLDRSGQGKVYPLISRRRFDQMTVLEGQNILATISGRKRRIRVYYLSWLRQKILRTEGAGSANTTEKRNGWVNVGDLQGAIHFKIVRYERIKFLVVGLESSIEIYAWAPKPYHKFMSFKSFGSLSHVPLIVDLTVEDNARLKVLYGSTGGFHAIDLDSAAVYDIYTPAQSGQTTTPHCIVVLPNSNGMQLLLCYDNEGVYVNTYGRMTKNVVLQWGEMPSSVAYISTGQIMGWGNKAIEIRSVDTGHLDGVFMHKKAQKLKFLCERNDKVFFSSAKGGGSCQIYFMTLNKPGLTNW” it is “not soluble”.

The values are drawn from the DeepSol protein solubility set.
